# According to article PMC10957665, “The C-terminal selenenylsulfide of extracellular/non-reduced thioredoxin reductase endows this protein with selectivity to small-molecule electrophilic reagents under oxidative conditions” (Frontiers in Molecular Biosciences, 2024):
# B1: Cys73Ala mutant of hTrx1 (natural protein, human, UniProt P10599 1-105, looked up)
# chain: MVKQIESKTAFQEALDAAGDKLVVVDFSATWCGPCKMIKPFFHSLSEKYSNVIFLEVDVDDCQDVASECEVKAMPTFQFFKKGQKVGEFSGANKEKLEATINELV
# notes: Human cytosolic thioredoxin (hTrx1) with Cys73 replaced by Ala; also called hTrx1 mutant in which Cys73 was substituted by Ala
# B2: human cytosolic thioredoxin (hTrx1) (natural protein, UniProt P10599 1-105, looked up)
# chain: MVKQIESKTAFQEALDAAGDKLVVVDFSATWCGPCKMIKPFFHSLSEKYSNVIFLEVDVDDCQDVASECEVKCMPTFQFFKKGQKVGEFSGANKEKLEATINELV
# notes: Human cytosolic thioredoxin (hTrx1); freshly DTT-treated, free thiol on surface Cys73; also called human cytosolic Trx; source: purified according to a previously described method (Zhai and Zhong, 2010); incubated with DTT and dialysed before use
# Legend:
# [1] = molecular target: the molecule itself; assay: cross-linking; diamide-induced covalent (disulfide/selenenylsulfide) complex: TrxR1 or a TrxR1 mutant with a 2-fold concentration of hTrx1, or one protein alone, 10 mM diamide, 30 min at room temperature; non-reducing SDS-PAGE, Coomassie stain
# [2] = molecular target: the molecule itself; assay: cross-linking; H2O2 as thiol oxidant in place of diamide; unpublished (Zhong's observation)
Protein,stoichiometry N [1],stoichiometry N [2]
B1,2,
B2,,2
